Consider two molecules from US20210139548A1 (published 2021).

*1 amine or outer side, *2 acyl side, *3 side chain or, on linkers, in order; H or OH if unused. Side-chain parts run from the residue outwards. The star is where a group is joined. C18 diacid = O=C(O)CCCCCCCCCCCCCCCCC(=O)*; γGlu = O=C(O)[C@H](CCC(=O)[*:2])N[*:1]; Isovaleryl = CC(C)CC(=O)*; AEEA = NCCOCCOCC(=O)O

This experiment addresses T1, human neuropeptide Y2 receptor (human, UniProt P49146 1-381).
T1 construct: whole, on cells; also called hNPY2 receptor; hNPY2-R
T1 sequence (looked up): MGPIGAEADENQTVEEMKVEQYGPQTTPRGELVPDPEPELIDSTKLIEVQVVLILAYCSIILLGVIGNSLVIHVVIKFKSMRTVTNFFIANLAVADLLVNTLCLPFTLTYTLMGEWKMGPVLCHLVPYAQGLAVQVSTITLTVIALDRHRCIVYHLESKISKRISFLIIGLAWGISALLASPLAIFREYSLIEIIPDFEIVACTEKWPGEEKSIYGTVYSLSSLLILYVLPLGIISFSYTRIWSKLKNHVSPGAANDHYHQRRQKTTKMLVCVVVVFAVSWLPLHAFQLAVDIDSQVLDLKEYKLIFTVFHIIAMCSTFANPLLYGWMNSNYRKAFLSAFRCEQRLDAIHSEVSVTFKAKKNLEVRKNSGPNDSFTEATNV
Kind of experiment: radioligand competition (125I-PYY(1-36)), hNPY2R membranes. On the procedure:
The filtration RLB assay was carried out in 96-well plates in a final volume of 100 μl per well. Freeze-dried test peptides were dissolved in 100% dimethyl sulfoxide (DMSO) to stock solutions of 1 mM and serial dilutions were performed in assay buffer (50 mM HEPES, 5 mM MgCl₂, 1 mM CaCl₂, pH 7.4) containing 0.2% ovalbumin. […] Next, 80 μL membranes (HTS066M, ChemiSCREEN™ Human Neuropeptide Y2 Receptor Membrane Preparation, CHEMICON) were added to each well to give a final protein concentration of 0.5 μg/well. The plates were sealed and incubated at room temperature for 2 hours in a plate shaker set at 400 rpm. The incubation was stopped by vacuum filtration onto 0.5% poly-ethylene amine (PEI) presoaked GF/C filters using a 96-well FilterMate™ harvester (Perkin Elmer) followed by four washes with 300 μl/well ice-cold wash buffer (50 mM HEPES, 500 mM NaCl, pH7.4). Filter plates were then dried for 60 min at room temperature and the bottom of the plates was sealed with backing tape UniFilter-96. Finally, 50 μl/well scintillation counter cocktail (Microscint20, Packard) was added and the radioactivity was counted in the Packard TopCount NXT scintillation counter. IC₅₀ values (the half maximal inhibitory concentration of the agonist) were calculated by nonlinear regression analysis of sigmoidal dose-response curves.
For orientation: In a radioligand displacement assay an active substance lowers the binding of a labelled ligand.

B1: Compound 17 (peptide)
peptide: Isovaleryl-APEK([AEEA-AEEA-γGlu-C18 diacid])PEEDASPAELQRYYVSLRHYYNWLTRQRY-NH2
SMILES: CC(C)CC(=O)N[C@@H](C)C(=O)N1CCC[C@H]1C(=O)N[C@@H](CCC(=O)O)C(=O)N[C@@H](CCCCNC(=O)COCCOCCNC(=O)COCCOCCNC(=O)CC[C@H](NC(=O)CCCCCCCCCCCCCCCCC(=O)O)C(=O)O)C(=O)N1CCC[C@H]1C(=O)N[C@@H](CCC(=O)O)C(=O)N[C@@H](CCC(=O)O)C(=O)N[C@@H](CC(=O)O)C(=O)N[C@@H](C)C(=O)N[C@@H](CO)C(=O)N1CCC[C@H]1C(=O)N[C@@H](C)C(=O)N[C@@H](CCC(=O)O)C(=O)N[C@@H](CC(C)C)C(=O)N[C@@H](CCC(N)=O)C(=O)N[C@@H](CCCNC(=N)N)C(=O)N[C@@H](Cc1ccc(O)cc1)C(=O)N[C@@H](Cc1ccc(O)cc1)C(=O)N[C@H](C(=O)N[C@@H](CO)C(=O)N[C@@H](CC(C)C)C(=O)N[C@@H](CCCNC(=N)N)C(=O)N[C@@H](Cc1c[nH]cn1)C(=O)N[C@@H](Cc1ccc(O)cc1)C(=O)N[C@@H](Cc1ccc(O)cc1)C(=O)N[C@@H](CC(N)=O)C(=O)N[C@@H](Cc1c[nH]c2ccccc12)C(=O)N[C@@H](CC(C)C)C(=O)N[C@H](C(=O)N[C@@H](CCCNC(=N)N)C(=O)N[C@@H](CCC(N)=O)C(=O)N[C@@H](CCCNC(=N)N)C(=O)N[C@@H](Cc1ccc(O)cc1)C(N)=O)[C@@H](C)O)C(C)C
Turning to B1, the affinity corresponds to a Ki of 0.93 nM.

B2: Compound 19 (peptide)
peptide: Isovaleryl-APEK([AEEA-AEEA-γGlu-C18 diacid])PEADASPEELQQYYVSLRHYYNWLTRQRY-NH2
SMILES: CC(C)CC(=O)N[C@@H](C)C(=O)N1CCC[C@H]1C(=O)N[C@@H](CCC(=O)O)C(=O)N[C@@H](CCCCNC(=O)COCCOCCNC(=O)COCCOCCNC(=O)CC[C@H](NC(=O)CCCCCCCCCCCCCCCCC(=O)O)C(=O)O)C(=O)N1CCC[C@H]1C(=O)N[C@@H](CCC(=O)O)C(=O)N[C@@H](C)C(=O)N[C@@H](CC(=O)O)C(=O)N[C@@H](C)C(=O)N[C@@H](CO)C(=O)N1CCC[C@H]1C(=O)N[C@@H](CCC(=O)O)C(=O)N[C@@H](CCC(=O)O)C(=O)N[C@@H](CC(C)C)C(=O)N[C@@H](CCC(N)=O)C(=O)N[C@@H](CCC(N)=O)C(=O)N[C@@H](Cc1ccc(O)cc1)C(=O)N[C@@H](Cc1ccc(O)cc1)C(=O)N[C@H](C(=O)N[C@@H](CO)C(=O)N[C@@H](CC(C)C)C(=O)N[C@@H](CCCNC(=N)N)C(=O)N[C@@H](Cc1c[nH]cn1)C(=O)N[C@@H](Cc1ccc(O)cc1)C(=O)N[C@@H](Cc1ccc(O)cc1)C(=O)N[C@@H](CC(N)=O)C(=O)N[C@@H](Cc1c[nH]c2ccccc12)C(=O)N[C@@H](CC(C)C)C(=O)N[C@H](C(=O)N[C@@H](CCCNC(=N)N)C(=O)N[C@@H](CCC(N)=O)C(=O)N[C@@H](CCCNC(=N)N)C(=O)N[C@@H](Cc1ccc(O)cc1)C(N)=O)[C@@H](C)O)C(C)C
Regarding B2, the Ki (commonly a measure of affinity in units of concentration, obtained from inhibition or displacement) is 0.39 nM.
